PMC7862519

Legend:
[1] = biological target: D2 (his-tagged domain 2 of extracellular endo-alpha-(1->5)-L-arabinanase 1) (Geobacillus stearothermophilus T-6) (UniProt B3EYN2); assay: reflectometric porous-silicon aptasensor (real-time EOT); details: 5'-amino, Selection buffer: 50 mM K2HPO4, 150 mM NaCl, pH 7.4, flow 30 uL/min for 1 h, temperature not stated, elution with 1 M imidazole
[2] = biological target: D2N (D2 without his tag) (Geobacillus stearothermophilus T-6) (UniProt B3EYN2); assay: as above; details: 1 uM protein, 5'-amino, Selection buffer: 50 mM K2HPO4, 150 mM NaCl, pH 7.4, flow 30 uL/min for 1 h, temperature not stated, elution with 1 M imidazole

## GCTATGGGTGGTCTGGTTGGGATTGGCCCCGGGAGCTGGC [anti-his tag aptamer 6H7]
[1]; 0.25 uM protein, 3D-printed microfluidic
  binding signal (relative dEOT/EOT0 x10^-3): 1.6
[1]; 0.5 uM protein, 3D-printed microfluidic, reused sensor
  binding signal (relative dEOT/EOT0 x10^-3): 2.3
[1]; 1 uM protein, 3D-printed microfluidic, released by 1 M imidazole
  binding signal (relative dEOT/EOT0 x10^-3): 4
[1]; 1 uM protein, PDMS microfluidic, signal partly non-specific adsorption
  binding signal (relative dEOT/EOT0 x10^-3): 3.2
[2]; PDMS microfluidic, ascribed to non-specific adsorption
  binding signal (relative dEOT/EOT0 x10^-3): 1.7
[2]; 3D-printed microfluidic
  binding signal (relative dEOT/EOT0 x10^-3): 0.8
